# Measurements taken from paper PMC12796321, “The genetic and biochemical basis of human leading strand synthesis”.
# How the values were obtained:
# [1] = biological target: POLE1 ISC mutant;POLE2;POLE3;POLE4 (human;human;human;human, UniProt Q07864;P56282;Q9NRF9;Q9NR33 1-2286;1-527;1-147;1-117, C651S;C654S|||); assay: EMSA; EMSA: 30 nM DNA, 30-120 nM protein; protein dilution buffer 25 mM Hepes pH 7.5, 100 mM NaCl, 10% glycerol, 0.5 mM EDTA, 1 mM DTT, 0.01% NP-40; 5x reaction buffer 175 mM Hepes pH 7.4, 100 mM NaCl, 10 mM DTT, 500 ug/ml BSA; on ice 20 min (legends: 15 min); native TBE gel at 4 C; conditions: protein: recombinant;recombinant;recombinant;recombinant, tags: N-terminal streptavidin tag;;;, copies: 1;1;1;1
# [2] = biological target: T1, POLE1 (Pol epsilon catalytic subunit);POLE2;POLE3;POLE4 DNA binding mutant (DB/DBM) (human;human;human;human, UniProt Q07864;P56282;Q9NRF9;Q9NR33 1-2286;1-527;1-147;1-117, |||A44L;R45D;K47E;K51E); assay: EMSA; binding abolished; EMSA: 30 nM DNA, 30-120 nM protein; protein dilution buffer 25 mM Hepes pH 7.5, 100 mM NaCl, 10% glycerol, 0.5 mM EDTA, 1 mM DTT, 0.01% NP-40; 5x reaction buffer 175 mM Hepes pH 7.4, 100 mM NaCl, 10 mM DTT, 500 ug/ml BSA; on ice 20 min (legends: 15 min); native TBE gel at 4 C; conditions: protein: recombinant;recombinant;recombinant;recombinant; tags: N-terminal streptavidin tag;;;; copies: 1;1;1;1; label: 5' 6FAM on strand 1; blunt
# [3] = biological target: T1, POLE1 (Pol epsilon catalytic …); assay: EMSA; EMSA: 30 nM DNA, 30-120 nM protein; protein dilution buffer 25 mM Hepes pH 7.5, 100 mM NaCl, 10% glycerol, 0.5 mM EDTA, 1 mM DTT, 0.01% NP-40; 5x reaction buffer 175 mM Hepes pH 7.4, 100 mM NaCl, 10 mM DTT, 500 ug/ml BSA; on ice 20 min (legends: 15 min); native TBE gel at 4 C; conditions: protein: recombinant;recombinant;recombinant;recombinant; tags: N-terminal streptavidin tag;;;; copies: 1;1;1;1; label: 5' 6FAM
# [4] = biological target: POLE1 (Pol epsilon catalytic subunit);POLE2 (human;human, UniProt Q07864;P56282 1-2286;1-527, |); assay: EMSA; without POLE3-POLE4; EMSA: 30 nM DNA, 30-120 nM protein; protein dilution buffer 25 mM Hepes pH 7.5, 100 mM NaCl, 10% glycerol, 0.5 mM EDTA, 1 mM DTT, 0.01% NP-40; 5x reaction buffer 175 mM Hepes pH 7.4, 100 mM NaCl, 10 mM DTT, 500 ug/ml BSA; on ice 20 min (legends: 15 min); native TBE gel at 4 C; conditions: protein: recombinant;recombinant; tags: N-terminal streptavidin tag;; copies: 1;1; label: 5' 6FAM
# Sequence of POLE1 (Pol epsilon catalytic subunit);POLE2 (Q07864 whole entry, chain 1 of 2): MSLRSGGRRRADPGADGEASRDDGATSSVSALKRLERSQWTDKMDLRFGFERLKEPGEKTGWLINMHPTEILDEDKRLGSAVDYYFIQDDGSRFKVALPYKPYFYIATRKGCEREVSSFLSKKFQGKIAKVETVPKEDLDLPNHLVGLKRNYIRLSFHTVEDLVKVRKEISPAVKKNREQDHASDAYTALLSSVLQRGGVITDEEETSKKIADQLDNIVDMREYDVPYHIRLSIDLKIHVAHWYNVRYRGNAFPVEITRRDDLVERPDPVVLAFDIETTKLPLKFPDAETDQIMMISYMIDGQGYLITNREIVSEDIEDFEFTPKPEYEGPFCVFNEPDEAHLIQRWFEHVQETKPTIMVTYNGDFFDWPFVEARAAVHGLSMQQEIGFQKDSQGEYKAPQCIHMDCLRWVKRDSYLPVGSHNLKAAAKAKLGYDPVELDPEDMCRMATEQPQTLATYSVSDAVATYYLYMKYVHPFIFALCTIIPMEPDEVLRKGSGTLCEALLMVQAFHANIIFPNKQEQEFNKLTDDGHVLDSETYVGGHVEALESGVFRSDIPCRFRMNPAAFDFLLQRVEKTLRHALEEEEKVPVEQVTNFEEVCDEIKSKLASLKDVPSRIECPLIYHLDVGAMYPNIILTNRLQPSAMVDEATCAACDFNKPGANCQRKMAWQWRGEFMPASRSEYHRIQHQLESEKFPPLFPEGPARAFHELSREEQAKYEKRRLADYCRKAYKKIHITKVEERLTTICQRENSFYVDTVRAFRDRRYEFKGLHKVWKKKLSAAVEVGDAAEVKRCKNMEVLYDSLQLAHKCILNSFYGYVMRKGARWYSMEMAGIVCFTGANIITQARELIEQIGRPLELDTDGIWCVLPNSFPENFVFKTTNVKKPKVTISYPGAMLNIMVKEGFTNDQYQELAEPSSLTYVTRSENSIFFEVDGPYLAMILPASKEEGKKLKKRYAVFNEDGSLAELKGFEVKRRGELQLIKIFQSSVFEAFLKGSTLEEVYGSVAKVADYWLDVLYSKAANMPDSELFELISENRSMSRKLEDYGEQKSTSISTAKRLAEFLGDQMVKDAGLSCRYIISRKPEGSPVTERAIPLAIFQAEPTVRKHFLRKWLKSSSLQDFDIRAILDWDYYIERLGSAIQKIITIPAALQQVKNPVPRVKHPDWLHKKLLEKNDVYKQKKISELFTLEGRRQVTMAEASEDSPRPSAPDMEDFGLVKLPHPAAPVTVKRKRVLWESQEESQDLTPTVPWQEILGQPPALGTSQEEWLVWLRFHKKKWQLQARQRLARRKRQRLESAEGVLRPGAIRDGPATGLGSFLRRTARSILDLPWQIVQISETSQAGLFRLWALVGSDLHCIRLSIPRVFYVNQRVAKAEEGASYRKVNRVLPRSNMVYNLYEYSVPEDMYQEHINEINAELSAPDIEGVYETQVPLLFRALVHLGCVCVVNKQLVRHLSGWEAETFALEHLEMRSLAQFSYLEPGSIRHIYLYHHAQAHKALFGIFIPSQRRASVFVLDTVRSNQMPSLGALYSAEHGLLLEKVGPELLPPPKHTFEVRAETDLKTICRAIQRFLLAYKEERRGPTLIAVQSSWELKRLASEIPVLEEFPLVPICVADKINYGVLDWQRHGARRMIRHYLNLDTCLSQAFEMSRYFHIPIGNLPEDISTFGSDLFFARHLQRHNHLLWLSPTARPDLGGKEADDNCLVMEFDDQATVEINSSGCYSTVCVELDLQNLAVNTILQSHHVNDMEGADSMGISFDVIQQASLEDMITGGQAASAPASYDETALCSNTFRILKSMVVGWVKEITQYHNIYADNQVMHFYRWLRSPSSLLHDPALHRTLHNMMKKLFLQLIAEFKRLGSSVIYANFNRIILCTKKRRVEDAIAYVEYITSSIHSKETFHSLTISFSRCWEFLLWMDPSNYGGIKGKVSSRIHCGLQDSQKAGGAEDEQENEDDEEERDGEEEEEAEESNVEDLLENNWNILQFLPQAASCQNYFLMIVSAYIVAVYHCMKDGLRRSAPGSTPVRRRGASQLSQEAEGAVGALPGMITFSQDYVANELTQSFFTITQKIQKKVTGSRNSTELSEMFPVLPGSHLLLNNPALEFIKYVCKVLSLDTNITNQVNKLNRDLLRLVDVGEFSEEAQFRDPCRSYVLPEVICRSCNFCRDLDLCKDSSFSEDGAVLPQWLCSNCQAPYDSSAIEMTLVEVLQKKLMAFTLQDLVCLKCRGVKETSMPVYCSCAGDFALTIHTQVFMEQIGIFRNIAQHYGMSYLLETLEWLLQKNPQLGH
# Sequence of POLE1 (Pol epsilon catalytic subunit);POLE2 (P56282 whole entry, chain 2 of 2): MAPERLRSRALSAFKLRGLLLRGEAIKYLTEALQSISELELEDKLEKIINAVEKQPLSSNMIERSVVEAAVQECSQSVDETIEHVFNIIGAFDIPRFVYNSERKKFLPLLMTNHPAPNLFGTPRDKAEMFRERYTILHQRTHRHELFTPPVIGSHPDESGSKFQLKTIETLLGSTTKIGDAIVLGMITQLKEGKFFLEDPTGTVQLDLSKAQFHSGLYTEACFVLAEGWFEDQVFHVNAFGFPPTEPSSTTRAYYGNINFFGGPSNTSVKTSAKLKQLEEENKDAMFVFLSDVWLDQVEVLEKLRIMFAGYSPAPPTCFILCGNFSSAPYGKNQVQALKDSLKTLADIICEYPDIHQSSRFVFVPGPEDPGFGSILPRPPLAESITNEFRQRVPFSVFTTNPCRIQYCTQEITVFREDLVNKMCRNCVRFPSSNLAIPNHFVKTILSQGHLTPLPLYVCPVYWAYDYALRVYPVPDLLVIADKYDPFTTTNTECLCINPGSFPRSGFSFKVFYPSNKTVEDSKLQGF
# Sequence of POLE1 ISC mutant;POLE2;POLE3;POLE4 (Q07864 whole entry C651S/C654S, chain 1 of 4): as the sequence (Q07864 whole entry, chain 1 of 2) above, with C651S, C654S counted along it
# Sequence of POLE1 ISC mutant;POLE2;POLE3;POLE4 (P56282 whole entry, stated change not applied, chain 2 of 4): as the sequence (P56282 whole entry, chain 2 of 2) above
# Sequence of POLE1 ISC mutant;POLE2;POLE3;POLE4 (Q9NRF9 whole entry, stated change not applied, chain 3 of 4): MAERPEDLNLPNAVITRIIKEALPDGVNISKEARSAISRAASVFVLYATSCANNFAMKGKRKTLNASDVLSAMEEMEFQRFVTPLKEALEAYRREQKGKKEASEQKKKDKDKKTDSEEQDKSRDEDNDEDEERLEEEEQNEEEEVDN
# Sequence of POLE1 ISC mutant;POLE2;POLE3;POLE4 (Q9NR33 whole entry, stated change not applied, chain 4 of 4): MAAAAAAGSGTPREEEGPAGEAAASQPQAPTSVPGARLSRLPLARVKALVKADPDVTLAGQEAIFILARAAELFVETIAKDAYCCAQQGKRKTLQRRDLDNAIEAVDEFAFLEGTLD
# T1 sequence (Q07864 whole entry, stated change not applied, chain 1 of 4): as the sequence (Q07864 whole entry, chain 1 of 2) above
# T1 sequence (P56282 whole entry, stated change not applied, chain 2 of 4): as the sequence (P56282 whole entry, chain 2 of 2) above
# T1 sequence (Q9NRF9 whole entry, stated change not applied, chain 3 of 4): as the sequence (Q9NRF9 whole entry, stated change not applied, chain 3 of 4) above
# T1 sequence (Q9NR33 whole entry A44L/R45D/K47E/K51E, chain 4 of 4): as the sequence (Q9NR33 whole entry, stated change not applied, chain 4 of 4) above, with A44L, R45D, K47E, K51E counted along it
binder,measurement,setting,value
EMSA dsDNA 49 bp (dsDNA) DNA 1: AGCTACCATGCCTGCACGAATTAAGCAATTCGTAATCATGGTCATAGCT DNA 2: AGCTATGACCATGATTACGAATTGCTTAATTCGTGCAGGCATGGTAGCT,binding result,"[1]; label: 5' 6FAM on strand 1, blunt",binds
same,binding result,[2],no binding
AGCTACCATGCCTGCACGAATTAAGCAATTCGTAATCATGGTCATAGCT (ssDNA) [EMSA ssDNA 49-mer],binding result,[1]; label: 5' 6FAM,binds
same,binding result,[3],binds
same,binding result,[4],binds
EMSA leading strand fork (dsDNA) DNA 1: AGCTACCATGCCTGCACGAATTAAGCAATTCGTAATCATGGTCATAGCT DNA 2: CTACAGTTCGTCAGGATTCC DNA 3: AGCTATGACCATGATTACGAATTGCTTGGAATCCTGACGAACTGTAG,binding result,"[1]; label: 5' 6FAM on strand 1, fork 1:3 (27 bp) 2:3 (20 bp), 22 nt 5' flap on strand 1",binds
